# B1: EHEE_rd2_0196 (parent)
# chain: TETRTFDSEEEAKKAQKEAEKQGRTVTITRRDDRWEVRFD
# B2: 2M8U (parent)
# chain: TKAQVIEAFKVFDRDGNGYVTVDYLRKVLNELGDMMPADEIEEMIYEADPQNSGYVQYETFVGMLFL
# Variants of: B1
# Assay: folding stability dG (cDNA display proteolysis); higher = more stable
# Settings: PBS, room temperature
row,Variant,folding stability dG
1,TETRTFDSEEEAKKAQKEAEKQGRTVTITRRDDRWEVMFD,2.74 kcal/mol
2,TETRTFDSEEEAKKAQKEAEKQGRTVTITRRDDRWEVNFD,2.73 kcal/mol
3,TETRTFDSEEEAKKAQKEAEKQGRTVTITRRDDRWEVPFD,0.679 kcal/mol
4,TETRTFDSEEEAKKAQKEAEKQGRTVTITRRDDRWEVQFD,2.85 kcal/mol
5,TETRTFDSEEEAKKAQKEAEKQGRTVTITRRDDRWEVSFD,3 kcal/mol
6,TETRTFDSEEEAKKAQKEAEKQGRTVTITRRDDRWEVTFD,3.15 kcal/mol
7,TETRTFDSEEEAKKAQKEAEKQGRTVTITRRDDRWEVVFD,3.02 kcal/mol
8,TETRTFDSEEEAKKAQKEAEKQGRTVTITRRDDRWEVWFD,2.17 kcal/mol
9,TETRTFDSEEEAKKAQKEAEKQGRTVTITRRDDRWEVYFD,2.24 kcal/mol
10,TETRTFDSEEEAKKAQKEAEKQGRTVTITRRDDRWEVRAD,2.34 kcal/mol
11,TETRTFDSEEEAKKAQKEAEKQGRTVTITRRDDRWEVRCD,2.14 kcal/mol
12,TETRTFDSEEEAKKAQKEAEKQGRTVTITRRDDRWEVRDD,2.51 kcal/mol
13,TETRTFDSEEEAKKAQKEAEKQGRTVTITRRDDRWEVRED,2.52 kcal/mol
14,TETRTFDSEEEAKKAQKEAEKQGRTVTITRRDDRWEVRGD,1.87 kcal/mol
15,TETRTFDSEEEAKKAQKEAEKQGRTVTITRRDDRWEVRHD,1.93 kcal/mol
16,TETRTFDSEEEAKKAQKEAEKQGRTVTITRRDDRWEVRID,3.35 kcal/mol
17,TETRTFDSEEEAKKAQKEAEKQGRTVTITRRDDRWEVRKD,1.29 kcal/mol
18,TETRTFDSEEEAKKAQKEAEKQGRTVTITRRDDRWEVRLD,2.74 kcal/mol
19,TETRTFDSEEEAKKAQKEAEKQGRTVTITRRDDRWEVRMD,2.96 kcal/mol
20,TETRTFDSEEEAKKAQKEAEKQGRTVTITRRDDRWEVRND,1.81 kcal/mol
21,TETRTFDSEEEAKKAQKEAEKQGRTVTITRRDDRWEVRPD,2.06 kcal/mol
22,TETRTFDSEEEAKKAQKEAEKQGRTVTITRRDDRWEVRQD,2.02 kcal/mol
23,TETRTFDSEEEAKKAQKEAEKQGRTVTITRRDDRWEVRRD,1.35 kcal/mol

row,Variant,folding stability dG
1,TETRTFDSEEEAKKAQKEAEKQGRTVTITRRDDRWEVRSD,2.46 kcal/mol
2,TETRTFDSEEEAKKAQKEAEKQGRTVTITRRDDRWEVRTD,2.48 kcal/mol
3,TETRTFDSEEEAKKAQKEAEKQGRTVTITRRDDRWEVRVD,2.93 kcal/mol
4,TETRTFDSEEEAKKAQKEAEKQGRTVTITRRDDRWEVRWD,2.94 kcal/mol
5,TETRTFDSEEEAKKAQKEAEKQGRTVTITRRDDRWEVRYD,3.15 kcal/mol
6,TETRTFDSEEEAKKAQKEAEKQGRTVTITRRDDRWEVRFA,2.97 kcal/mol
7,TETRTFDSEEEAKKAQKEAEKQGRTVTITRRDDRWEVRFE,3.28 kcal/mol
8,TETRTFDSEEEAKKAQKEAEKQGRTVTITRRDDRWEVRFF,2.85 kcal/mol
9,TETRTFDSEEEAKKAQKEAEKQGRTVTITRRDDRWEVRFG,2.95 kcal/mol
10,TETRTFDSEEEAKKAQKEAEKQGRTVTITRRDDRWEVRFH,2.98 kcal/mol
11,TETRTFDSEEEAKKAQKEAEKQGRTVTITRRDDRWEVRFI,3.13 kcal/mol
12,TETRTFDSEEEAKKAQKEAEKQGRTVTITRRDDRWEVRFK,2.3 kcal/mol
13,TETRTFDSEEEAKKAQKEAEKQGRTVTITRRDDRWEVRFL,3.05 kcal/mol
14,TETRTFDSEEEAKKAQKEAEKQGRTVTITRRDDRWEVRFM,3.01 kcal/mol
15,TETRTFDSEEEAKKAQKEAEKQGRTVTITRRDDRWEVRFN,2.88 kcal/mol
16,TETRTFDSEEEAKKAQKEAEKQGRTVTITRRDDRWEVRFP,2.3 kcal/mol
17,TETRTFDSEEEAKKAQKEAEKQGRTVTITRRDDRWEVRFQ,2.92 kcal/mol
18,TETRTFDSEEEAKKAQKEAEKQGRTVTITRRDDRWEVRFR,2.42 kcal/mol
19,TETRTFDSEEEAKKAQKEAEKQGRTVTITRRDDRWEVRFS,3.13 kcal/mol
20,TETRTFDSEEEAKKAQKEAEKQGRTVTITRRDDRWEVRFT,3.15 kcal/mol
21,TETRTFDSEEEAKKAQKEAEKQGRTVTITRRDDRWEVRFV,3.21 kcal/mol
22,TETRTFDSEEEAKKAQKEAEKQGRTVTITRRDDRWEVRFW,2.89 kcal/mol
23,TETRTFDSEEEAKKAQKEAEKQGRTVTITRRDDRWEVRFY,2.8 kcal/mol

# Variants of: B2
# Assay: as above
# Settings: PBS, room temperature
row,Variant,folding stability dG
1,AKAQVIEAFKVFDRDGNGYVTVDYLRKVLNELGDMMPADEIEEMIYEADPQNSGYVQYETFVGMLFL,3.13 kcal/mol
2,CKAQVIEAFKVFDRDGNGYVTVDYLRKVLNELGDMMPADEIEEMIYEADPQNSGYVQYETFVGMLFL,3.76 kcal/mol
3,DKAQVIEAFKVFDRDGNGYVTVDYLRKVLNELGDMMPADEIEEMIYEADPQNSGYVQYETFVGMLFL,2.96 kcal/mol
4,EKAQVIEAFKVFDRDGNGYVTVDYLRKVLNELGDMMPADEIEEMIYEADPQNSGYVQYETFVGMLFL,2.94 kcal/mol
5,FKAQVIEAFKVFDRDGNGYVTVDYLRKVLNELGDMMPADEIEEMIYEADPQNSGYVQYETFVGMLFL,2.91 kcal/mol
6,GKAQVIEAFKVFDRDGNGYVTVDYLRKVLNELGDMMPADEIEEMIYEADPQNSGYVQYETFVGMLFL,2.88 kcal/mol
7,HKAQVIEAFKVFDRDGNGYVTVDYLRKVLNELGDMMPADEIEEMIYEADPQNSGYVQYETFVGMLFL,3.16 kcal/mol
8,IKAQVIEAFKVFDRDGNGYVTVDYLRKVLNELGDMMPADEIEEMIYEADPQNSGYVQYETFVGMLFL,3.61 kcal/mol
9,KKAQVIEAFKVFDRDGNGYVTVDYLRKVLNELGDMMPADEIEEMIYEADPQNSGYVQYETFVGMLFL,3.48 kcal/mol
10,LKAQVIEAFKVFDRDGNGYVTVDYLRKVLNELGDMMPADEIEEMIYEADPQNSGYVQYETFVGMLFL,3.3 kcal/mol
11,MKAQVIEAFKVFDRDGNGYVTVDYLRKVLNELGDMMPADEIEEMIYEADPQNSGYVQYETFVGMLFL,3.21 kcal/mol
12,NKAQVIEAFKVFDRDGNGYVTVDYLRKVLNELGDMMPADEIEEMIYEADPQNSGYVQYETFVGMLFL,3.18 kcal/mol
13,PKAQVIEAFKVFDRDGNGYVTVDYLRKVLNELGDMMPADEIEEMIYEADPQNSGYVQYETFVGMLFL,2.6 kcal/mol
14,QKAQVIEAFKVFDRDGNGYVTVDYLRKVLNELGDMMPADEIEEMIYEADPQNSGYVQYETFVGMLFL,3.13 kcal/mol
15,RKAQVIEAFKVFDRDGNGYVTVDYLRKVLNELGDMMPADEIEEMIYEADPQNSGYVQYETFVGMLFL,3.33 kcal/mol
16,SKAQVIEAFKVFDRDGNGYVTVDYLRKVLNELGDMMPADEIEEMIYEADPQNSGYVQYETFVGMLFL,3.34 kcal/mol
17,VKAQVIEAFKVFDRDGNGYVTVDYLRKVLNELGDMMPADEIEEMIYEADPQNSGYVQYETFVGMLFL,3.32 kcal/mol
18,WKAQVIEAFKVFDRDGNGYVTVDYLRKVLNELGDMMPADEIEEMIYEADPQNSGYVQYETFVGMLFL,3.1 kcal/mol
19,YKAQVIEAFKVFDRDGNGYVTVDYLRKVLNELGDMMPADEIEEMIYEADPQNSGYVQYETFVGMLFL,2.83 kcal/mol
20,TAAQVIEAFKVFDRDGNGYVTVDYLRKVLNELGDMMPADEIEEMIYEADPQNSGYVQYETFVGMLFL,3.47 kcal/mol
21,TCAQVIEAFKVFDRDGNGYVTVDYLRKVLNELGDMMPADEIEEMIYEADPQNSGYVQYETFVGMLFL,3.6 kcal/mol
22,TDAQVIEAFKVFDRDGNGYVTVDYLRKVLNELGDMMPADEIEEMIYEADPQNSGYVQYETFVGMLFL,2.24 kcal/mol
23,TEAQVIEAFKVFDRDGNGYVTVDYLRKVLNELGDMMPADEIEEMIYEADPQNSGYVQYETFVGMLFL,3.07 kcal/mol
24,TFAQVIEAFKVFDRDGNGYVTVDYLRKVLNELGDMMPADEIEEMIYEADPQNSGYVQYETFVGMLFL,2.94 kcal/mol
25,TGAQVIEAFKVFDRDGNGYVTVDYLRKVLNELGDMMPADEIEEMIYEADPQNSGYVQYETFVGMLFL,2.52 kcal/mol
26,THAQVIEAFKVFDRDGNGYVTVDYLRKVLNELGDMMPADEIEEMIYEADPQNSGYVQYETFVGMLFL,3.11 kcal/mol

row,Variant,folding stability dG
1,TIAQVIEAFKVFDRDGNGYVTVDYLRKVLNELGDMMPADEIEEMIYEADPQNSGYVQYETFVGMLFL,3.46 kcal/mol
2,TLAQVIEAFKVFDRDGNGYVTVDYLRKVLNELGDMMPADEIEEMIYEADPQNSGYVQYETFVGMLFL,3.3 kcal/mol
3,TMAQVIEAFKVFDRDGNGYVTVDYLRKVLNELGDMMPADEIEEMIYEADPQNSGYVQYETFVGMLFL,3.65 kcal/mol
4,TNAQVIEAFKVFDRDGNGYVTVDYLRKVLNELGDMMPADEIEEMIYEADPQNSGYVQYETFVGMLFL,2.56 kcal/mol
5,TPAQVIEAFKVFDRDGNGYVTVDYLRKVLNELGDMMPADEIEEMIYEADPQNSGYVQYETFVGMLFL,3.2 kcal/mol
6,TRAQVIEAFKVFDRDGNGYVTVDYLRKVLNELGDMMPADEIEEMIYEADPQNSGYVQYETFVGMLFL,3.02 kcal/mol
7,TSAQVIEAFKVFDRDGNGYVTVDYLRKVLNELGDMMPADEIEEMIYEADPQNSGYVQYETFVGMLFL,2.98 kcal/mol
8,TTAQVIEAFKVFDRDGNGYVTVDYLRKVLNELGDMMPADEIEEMIYEADPQNSGYVQYETFVGMLFL,2.79 kcal/mol
9,TVAQVIEAFKVFDRDGNGYVTVDYLRKVLNELGDMMPADEIEEMIYEADPQNSGYVQYETFVGMLFL,3.4 kcal/mol
10,TWAQVIEAFKVFDRDGNGYVTVDYLRKVLNELGDMMPADEIEEMIYEADPQNSGYVQYETFVGMLFL,2.67 kcal/mol
11,TYAQVIEAFKVFDRDGNGYVTVDYLRKVLNELGDMMPADEIEEMIYEADPQNSGYVQYETFVGMLFL,3.24 kcal/mol
12,TKCQVIEAFKVFDRDGNGYVTVDYLRKVLNELGDMMPADEIEEMIYEADPQNSGYVQYETFVGMLFL,3.48 kcal/mol
13,TKDQVIEAFKVFDRDGNGYVTVDYLRKVLNELGDMMPADEIEEMIYEADPQNSGYVQYETFVGMLFL,3.28 kcal/mol
14,TKEQVIEAFKVFDRDGNGYVTVDYLRKVLNELGDMMPADEIEEMIYEADPQNSGYVQYETFVGMLFL,3.69 kcal/mol
15,TKFQVIEAFKVFDRDGNGYVTVDYLRKVLNELGDMMPADEIEEMIYEADPQNSGYVQYETFVGMLFL,3 kcal/mol
16,TKGQVIEAFKVFDRDGNGYVTVDYLRKVLNELGDMMPADEIEEMIYEADPQNSGYVQYETFVGMLFL,2.93 kcal/mol
17,TKHQVIEAFKVFDRDGNGYVTVDYLRKVLNELGDMMPADEIEEMIYEADPQNSGYVQYETFVGMLFL,3.22 kcal/mol
18,TKIQVIEAFKVFDRDGNGYVTVDYLRKVLNELGDMMPADEIEEMIYEADPQNSGYVQYETFVGMLFL,3.27 kcal/mol
19,TKKQVIEAFKVFDRDGNGYVTVDYLRKVLNELGDMMPADEIEEMIYEADPQNSGYVQYETFVGMLFL,3.31 kcal/mol
20,TKLQVIEAFKVFDRDGNGYVTVDYLRKVLNELGDMMPADEIEEMIYEADPQNSGYVQYETFVGMLFL,3.21 kcal/mol
21,TKMQVIEAFKVFDRDGNGYVTVDYLRKVLNELGDMMPADEIEEMIYEADPQNSGYVQYETFVGMLFL,3.24 kcal/mol
22,TKNQVIEAFKVFDRDGNGYVTVDYLRKVLNELGDMMPADEIEEMIYEADPQNSGYVQYETFVGMLFL,3.25 kcal/mol
23,TKPQVIEAFKVFDRDGNGYVTVDYLRKVLNELGDMMPADEIEEMIYEADPQNSGYVQYETFVGMLFL,2.67 kcal/mol
24,TKQQVIEAFKVFDRDGNGYVTVDYLRKVLNELGDMMPADEIEEMIYEADPQNSGYVQYETFVGMLFL,3.56 kcal/mol
25,TKRQVIEAFKVFDRDGNGYVTVDYLRKVLNELGDMMPADEIEEMIYEADPQNSGYVQYETFVGMLFL,3.23 kcal/mol
